Test results reported in patent US12077763B2, “RNA-based control of powdery mildew” (Greenlight Biosciences, Inc., priority 2021, dated 2024).

Tested on: E. necator
Experiment: Leaf disc assay, dry inoculum (settling tower), decrease in disease severity / hyphal growth (Example 2)
Details: decrease in disease severity (hyphal growth) relative to untreated control, value ± SE; for % decrease =/− SE TP1: time point 1 (untreated control hyphal growth ≥50%); for % decrease =/− SE TP2: time point 2

B1: GS3302 (nucleic acid)
sense: UCUGAAGAGCCCUACCACUAUAAAGGUGUCAAGCUAGGUCAUUGAGAGGAUUGAGUUACGAAAUUUGAUUGCAGCCACGCCUUCGACUUCAACCGAGAAGAGUUCCAAUCUCCCUCUUAGACGCAGGACUACUCUCACGAUACUUCUGUCUCUACUUCUUCUCAUGAGCACGCUAAUACUCUCUAAGCCUCCGUUGAUGUGUUGAAAGACAGGCACCUCAGUUUUGAUUCUAUUCAGCUCGGCAAACAUG
antisense: CAUGUUUGCCGAGCUGAAUAGAAUCAAAACUGAGGUGCCUGUCUUUCAACACAUCAACGGAGGCUUAGAGAGUAUUAGCGUGCUCAUGAGAAGAAGUAGAGACAGAAGUAUCGUGAGAGUAGUCCUGCGUCUAAGAGGGAGAUUGGAACUCUUCUCGGUUGAAGUCGAAGGCGUGGCUGCAAUCAAAUUUCGUAACUCAAUCCUCUCAAUGACCUAGCUUGACACCUUUAUAGUGGUAGGGCUCUUCAGA
  % decrease =/− SE TP1: 31 ± 5%
  % decrease =/− SE TP2: 22 ± 7%

B2: GS3303 (nucleic acid)
sense: UUACCCUACACCUACUGGAGGUUACUCUGAAGAGCCCUACCACUAUAAAGGUGUCAAGCUAGGUCAUUGAGAGGAUUGAGUUACGAAAUUUGAUUGCAGCCACGCCUUCGACUUCAACCGAGAAGAGUUCCAAUCUCCCUCUUAGACGCAGGACUACUCUCACGAUACUUCUGUCUCUACUUCUUCUCAUGAGCACGCUAAUACUCUCUAAGCCUCCGUUGAUGUGUUGAAAGACAGGCACCUCAGUUUUGAUUCUAUUCAGCUCGGCAAACAUGUUGUGUACAUUCAUAGACUGAAUUU
antisense: AAAUUCAGUCUAUGAAUGUACACAACAUGUUUGCCGAGCUGAAUAGAAUCAAAACUGAGGUGCCUGUCUUUCAACACAUCAACGGAGGCUUAGAGAGUAUUAGCGUGCUCAUGAGAAGAAGUAGAGACAGAAGUAUCGUGAGAGUAGUCCUGCGUCUAAGAGGGAGAUUGGAACUCUUCUCGGUUGAAGUCGAAGGCGUGGCUGCAAUCAAAUUUCGUAACUCAAUCCUCUCAAUGACCUAGCUUGACACCUUUAUAGUGGUAGGGCUCUUCAGAGUAACCUCCAGUAGGUGUAGGGUAA
  % decrease =/− SE TP1: 35 ± 5%
  % decrease =/− SE TP2: 15 ± 9%

B3: GS3301 (nucleic acid)
sense: CAACAGGGACCAGUUACCCUACACCUACUGGAGGUUACUCUGAAGAGCCCUACCACUAUAAAGGUGUCAAGCUAGGUCAUUGAGAGGAUUGAGUUACGAAAUUUGAUUGCAGCCACGCCUUCGACUUCAACCGAGAAGAGUUCCAAUCUCCCUCUUAGACGCAGGACUACUCUCACGAUACUUCUGUCUCUACUUCUUCUCAUGAGCACGCUAAUACUCUCUAAGCCUCCGUUGAUGUGUUGAAAGACAGGCACCUCAGUUUUGAUUCUAUUCAGCUCGGCAAACAUGUUGUGUACAUUCAUAGACUGAAUUUCUUUUUUAUUAUUU
antisense: AAAUAAUAAAAAAGAAAUUCAGUCUAUGAAUGUACACAACAUGUUUGCCGAGCUGAAUAGAAUCAAAACUGAGGUGCCUGUCUUUCAACACAUCAACGGAGGCUUAGAGAGUAUUAGCGUGCUCAUGAGAAGAAGUAGAGACAGAAGUAUCGUGAGAGUAGUCCUGCGUCUAAGAGGGAGAUUGGAACUCUUCUCGGUUGAAGUCGAAGGCGUGGCUGCAAUCAAAUUUCGUAACUCAAUCCUCUCAAUGACCUAGCUUGACACCUUUAUAGUGGUAGGGCUCUUCAGAGUAACCUCCAGUAGGUGUAGGGUAACUGGUCCCUGUUG
  % decrease =/− SE TP1: 32 ± 5%
  % decrease =/− SE TP2: 0 ± 9%

B4: GS3300 (nucleic acid)
sense: GUAUCAACCAUUGCCUCUCCAAACCUUUCACCAACAACUUCCUUUUCAUCUUUUGUACGAACAGAAACGCCUGAUUCCAGUCUGCCAUUUAUAGAAAAUCCAGUGGCUAGACAAAAUGCACAUUGUAGUAGUAAGAGUGUUGGCAAUGGAAAUGGAAUUUUUAACUUGGACAUGAAUCUUUUGGCUUCUGCUGCUAUUAGGGUGGAAGGGAAUCACUCAUCAAACGCUUGUCAUCUCCCCCGAUACAAUAAAUCAUGCUGCGACCUCAGUGCGUACAAGAGUCGUUCUCAUUUUGCCUCAUCAUCACUUGUUCAGUCUCAUCCACCUCCGACAUUAGACAAGCUCAAUCAUUGCAUUAAGAGGUAUAUGAAGCGUUCACGAACUGACU
antisense: AGUCAGUUCGUGAACGCUUCAUAUACCUCUUAAUGCAAUGAUUGAGCUUGUCUAAUGUCGGAGGUGGAUGAGACUGAACAAGUGAUGAUGAGGCAAAAUGAGAACGACUCUUGUACGCACUGAGGUCGCAGCAUGAUUUAUUGUAUCGGGGGAGAUGACAAGCGUUUGAUGAGUGAUUCCCUUCCACCCUAAUAGCAGCAGAAGCCAAAAGAUUCAUGUCCAAGUUAAAAAUUCCAUUUCCAUUGCCAACACUCUUACUACUACAAUGUGCAUUUUGUCUAGCCACUGGAUUUUCUAUAAAUGGCAGACUGGAAUCAGGCGUUUCUGUUCGUACAAAAGAUGAAAAGGAAGUUGUUGGUGAAAGGUUUGGAGAGGCAAUGGUUGAUAC
  % decrease =/− SE TP1: 9 ± 5%
  % decrease =/− SE TP2: 4 ± 8%

B5: GS3297 (nucleic acid)
sense: GAGAAGAGGUCCGUGAGAAUUUUGACUCAUCUUUUGCCGCUCUUUAUCAUGAUCUUGAUAUGGGAUUUACACCGAUCAACUUUACAUUUUACUGGGCACCUCUACCUUGGAAUCGUGCUCGUGAUCAUGCCCAAAGAACUGUUGCUAGGACUUAUAUGAAUAUAAUCCAAGCUCGUACCCUCCUCUUCCCCUUCCCCUUCAUUGAACCUCGCUCCAAGGGGGCUUUAUGGGAAUCUGCCUCGUAGUAUAAAGUUCUGCAGCUGGCUCUACGGAUUGCAUCUACAACAACUACAACAUCAUCAUCAUCAUCAUCUUCAUCUUCAUCUUCUCCACCUUCAUAAGCUUCUACGUUUU
antisense: AAAACGUAGAAGCUUAUGAAGGUGGAGAAGAUGAAGAUGAAGAUGAUGAUGAUGAUGAUGUUGUAGUUGUUGUAGAUGCAAUCCGUAGAGCCAGCUGCAGAACUUUAUACUACGAGGCAGAUUCCCAUAAAGCCCCCUUGGAGCGAGGUUCAAUGAAGGGGAAGGGGAAGAGGAGGGUACGAGCUUGGAUUAUAUUCAUAUAAGUCCUAGCAACAGUUCUUUGGGCAUGAUCACGAGCACGAUUCCAAGGUAGAGGUGCCCAGUAAAAUGUAAAGUUGAUCGGUGUAAAUCCCAUAUCAAGAUCAUGAUAAAGAGCGGCAAAAGAUGAGUCAAAAUUCUCACGGACCUCUUCUC
  % decrease =/− SE TP1: 12 ± 6%
  % decrease =/− SE TP2: 22 ± 7%

B6: GS3298 (nucleic acid)
sense: AUGCCUUACAAGGAGAAGAGGUCCGUGAGAAUUUUGACUCAUCUUUUGCCGCUCUUUAUCAUGAUCUUGAUAUGGGAUUUACACCGAUCAACUUUACAUUUUACUGGGCACCUCUACCUUGGAAUCGUGCUCGUGAUCAUGCCCAAAGAACUGUUGCUAGGACUUAUAUGAAUAUAAUCCAAGCUCGUAGAGAAGAGAAAACGUCAACAACCCCCCUCCUCUUCCCCUUCCCCUUCAUUGAACCUCGCUCCAAGGGGGCUUUAUGGGAAUCUGCCUCGUAGUAUAAAGUUCUGCAGCUGGCUCUACGGAUUGCAUCUACAACAACUACAACAUCAUCAUCAUCAUCAUCUUCAUCUUCAUCUUCUCCACCUUCAUAAGCUUCUACGUUUUUGCAUGUUCAA
antisense: UUGAACAUGCAAAAACGUAGAAGCUUAUGAAGGUGGAGAAGAUGAAGAUGAAGAUGAUGAUGAUGAUGAUGUUGUAGUUGUUGUAGAUGCAAUCCGUAGAGCCAGCUGCAGAACUUUAUACUACGAGGCAGAUUCCCAUAAAGCCCCCUUGGAGCGAGGUUCAAUGAAGGGGAAGGGGAAGAGGAGGGGGGUUGUUGACGUUUUCUCUUCUCUACGAGCUUGGAUUAUAUUCAUAUAAGUCCUAGCAACAGUUCUUUGGGCAUGAUCACGAGCACGAUUCCAAGGUAGAGGUGCCCAGUAAAAUGUAAAGUUGAUCGGUGUAAAUCCCAUAUCAAGAUCAUGAUAAAGAGCGGCAAAAGAUGAGUCAAAAUUCUCACGGACCUCUUCUCCUUGUAAGGCAU
  % decrease =/− SE TP1: 22 ± 5%
  % decrease =/− SE TP2: 7 ± 7%

B7: GS3304 (nucleic acid)
sense: GUUACGCAUCGCCAACAGGGACCAGUUACCCUACACCUACUGGAGGUUACUCUGAAGAGCCCUACCACUAUAAAGGUGUCAAGCUAGGUCAUUGAGAGGAUUGAGUUACGAAAUUUGAUUGCAGCCACGCCUUCGACUUCAACCGAGAAGAGUUCCAAUCUCCCUCUUAGACGCAGGACUACUCUCACGAUACUUCUGUCUCUACUUCUUCUCAUGAGCACGCUAAUACUCUCUAAGCCUCCGUUGAUGUGUUGAAAGACAGGCACCUCAGUUUUGAUUCUAUUCAGCUCGGCAAACAUGUUGUGUACAUUCAUAGACUGAAUUUCUUUUUUAUUAUUUUUUUCCAAAUA
antisense: UAUUUGGAAAAAAAUAAUAAAAAAGAAAUUCAGUCUAUGAAUGUACACAACAUGUUUGCCGAGCUGAAUAGAAUCAAAACUGAGGUGCCUGUCUUUCAACACAUCAACGGAGGCUUAGAGAGUAUUAGCGUGCUCAUGAGAAGAAGUAGAGACAGAAGUAUCGUGAGAGUAGUCCUGCGUCUAAGAGGGAGAUUGGAACUCUUCUCGGUUGAAGUCGAAGGCGUGGCUGCAAUCAAAUUUCGUAACUCAAUCCUCUCAAUGACCUAGCUUGACACCUUUAUAGUGGUAGGGCUCUUCAGAGUAACCUCCAGUAGGUGUAGGGUAACUGGUCCCUGUUGGCGAUGCGUAAC
  % decrease =/− SE TP2: 6 ± 7%

B8: GS3299 (nucleic acid)
sense: CACCAGGAUCCACCUAAAGAUGAGCCAACCGAUCAGAAGUCUCUGGAGCUGAGGAGAACCUUAUUUUAUAGUAUUUACUCUCUUGAUAGAUCUGUCAGUAUGGUUCACGCGCGCUCUUUUUCAUUUACCGACGAUUCGACUAGCGUUACUUUCCCAUCCAUUAAGAACGAGAAAUUACCAGUCGACACCAAAUUAAAACUAGGUAGGAAAUUCAAGAUUCAAUCCUCACUUUUAUUCAAACUUCGAAAGAUUCAGUCUUCAUGGUAUCACGAGCUUUUUCAAUCCAAAAAUGAUUUUAUAACAAAUCCAUCAACAUAUAUUCAGAAAGUGUGUCAAGAAAUGCAAGCAUGGGCUCAGUCGAUUCCCGAAUAUUUACCCACUCAUAUCAAAAAUUAUUU
antisense: AAAUAAUUUUUGAUAUGAGUGGGUAAAUAUUCGGGAAUCGACUGAGCCCAUGCUUGCAUUUCUUGACACACUUUCUGAAUAUAUGUUGAUGGAUUUGUUAUAAAAUCAUUUUUGGAUUGAAAAAGCUCGUGAUACCAUGAAGACUGAAUCUUUCGAAGUUUGAAUAAAAGUGAGGAUUGAAUCUUGAAUUUCCUACCUAGUUUUAAUUUGGUGUCGACUGGUAAUUUCUCGUUCUUAAUGGAUGGGAAAGUAACGCUAGUCGAAUCGUCGGUAAAUGAAAAAGAGCGCGCGUGAACCAUACUGACAGAUCUAUCAAGAGAGUAAAUACUAUAAAAUAAGGUUCUCCUCAGCUCCAGAGACUUCUGAUCGGUUGGCUCAUCUUUAGGUGGAUCCUGGUG
  % decrease =/− SE TP2: 14 ± 7%
